From patent US5279956A, “Activated protein C polypeptides and anti-peptide antibodies, diagnostic methods and systems for inhibiting activated protein C” (The Scripps Research Institute, priority 1991, dated 1994)

Assays:
[1] = molecular target: T1, APC (Homo sapiens, UniProt P04070); assay: Inhibition of APC by recombinant mutant (Arg358)-α1-antitrypsin, time course; assay type: biochemical; conditions: 18 nM APC and 100 nM α1-AT
T1 construct: begins at amino acid residue position 158 and ends at 419; The light chain is 155 amino acid residues in length; tissue Factor IX concentrate from Immuno AG, Vienna; thrombin from Enzyme Research Laboratories
Protocol: Since the number of amino acid residues involved in protease-protease inhibitor complexes is likely to be higher than the number of residues of APC involved in the cleavage of a small chromogenic substrate such as S-2366, the effect of peptide-(390-404) and peptide-(317-331) on the time course of inhibition of APC by a larger pseudosubstrate, recombinant mutant (Arg^358)-α1 -antitrypsin (α1 -AT) was evaluated. […] Heeb et al., J. Biol. Chem. 265:2365-2369 (1990).
Kinetic studies of inhibition of APC were performed with the higher affinity mutant α1 -AT pseudo-substrate. […] The change in absorbance was measured over time as described in the amidolytic assay. […]
Since the number of amino acid residues involved in protease-protease inhibitor complexes is likely to be higher than the number of residues of APC involved in the cleavage of a small chromogenic substrate such as S-2366, the effect of anti-(390-404) antibody on the time course of inhibition of APC by a larger pseudo-substrate, such as recombinant mutant (Arg^358)-α1 -AT was evaluated. […] The change in absorbance was measured over time as described in the amidolytic assay. […]

[2] = molecular target: T1, APC; conditions: Heeb et al. 1990; cited from earlier work

T1 sequence (P04070 212-461): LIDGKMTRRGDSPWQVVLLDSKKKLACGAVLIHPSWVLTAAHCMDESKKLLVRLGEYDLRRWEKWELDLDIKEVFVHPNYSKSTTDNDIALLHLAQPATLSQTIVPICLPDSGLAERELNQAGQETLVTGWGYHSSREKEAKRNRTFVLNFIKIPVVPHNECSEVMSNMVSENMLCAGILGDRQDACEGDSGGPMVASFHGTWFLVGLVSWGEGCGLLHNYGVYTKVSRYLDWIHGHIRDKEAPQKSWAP
T1 sequence (P04070 43-197): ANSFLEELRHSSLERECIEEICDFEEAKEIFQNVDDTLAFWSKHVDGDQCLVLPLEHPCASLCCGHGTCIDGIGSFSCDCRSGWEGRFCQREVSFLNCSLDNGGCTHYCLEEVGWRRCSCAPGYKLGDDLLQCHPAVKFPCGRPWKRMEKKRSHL

calculated half-life for APC [1]: 2 min
Substance: recombinant (Arg^358)α1 -AT: recombinant mutant α1-antitrypsin with Met358 substituted by Arg, pseudosubstrate inhibitor of APC (Transgene)
increase in the association rate for APC by substitution of Met358 by Arg [2]: over 4400 fold
